# Residue numbers refer to the chain shown, from its start.
# T1: human PTK7, full length, on the cell surface (human, UniProt Q13308 31-1070)
# T1 sequence: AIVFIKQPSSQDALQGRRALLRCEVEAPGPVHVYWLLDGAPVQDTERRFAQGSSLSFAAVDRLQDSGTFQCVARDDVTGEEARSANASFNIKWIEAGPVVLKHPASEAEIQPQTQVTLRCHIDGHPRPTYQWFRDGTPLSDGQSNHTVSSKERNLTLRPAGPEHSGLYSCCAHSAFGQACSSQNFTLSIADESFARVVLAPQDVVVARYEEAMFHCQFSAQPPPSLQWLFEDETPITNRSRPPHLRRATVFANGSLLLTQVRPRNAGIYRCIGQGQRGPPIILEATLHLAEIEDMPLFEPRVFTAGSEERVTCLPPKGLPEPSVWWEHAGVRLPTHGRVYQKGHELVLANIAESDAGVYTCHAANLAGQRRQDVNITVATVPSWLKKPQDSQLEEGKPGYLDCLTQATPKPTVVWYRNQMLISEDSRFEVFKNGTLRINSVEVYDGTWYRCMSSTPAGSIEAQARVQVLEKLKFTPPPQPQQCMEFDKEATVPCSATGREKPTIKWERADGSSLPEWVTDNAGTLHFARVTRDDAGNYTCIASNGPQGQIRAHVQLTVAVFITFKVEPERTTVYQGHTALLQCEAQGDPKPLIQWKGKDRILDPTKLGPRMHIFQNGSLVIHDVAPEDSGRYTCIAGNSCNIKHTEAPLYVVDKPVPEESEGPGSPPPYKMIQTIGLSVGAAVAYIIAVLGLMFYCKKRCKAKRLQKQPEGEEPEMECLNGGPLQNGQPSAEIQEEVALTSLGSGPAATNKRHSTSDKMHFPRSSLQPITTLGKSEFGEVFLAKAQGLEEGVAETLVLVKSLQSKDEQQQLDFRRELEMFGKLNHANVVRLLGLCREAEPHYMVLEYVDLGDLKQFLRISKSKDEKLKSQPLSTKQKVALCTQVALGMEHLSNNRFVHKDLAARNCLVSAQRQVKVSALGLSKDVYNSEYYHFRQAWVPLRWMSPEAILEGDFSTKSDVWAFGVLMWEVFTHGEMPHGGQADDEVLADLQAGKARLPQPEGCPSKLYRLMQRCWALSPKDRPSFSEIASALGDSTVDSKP
# T2: recombinant extracellular domain of PTK7 (human, UniProt Q13308 31-704)
# T2 construct: also called PTK7 extracellular domain
# T2 sequence: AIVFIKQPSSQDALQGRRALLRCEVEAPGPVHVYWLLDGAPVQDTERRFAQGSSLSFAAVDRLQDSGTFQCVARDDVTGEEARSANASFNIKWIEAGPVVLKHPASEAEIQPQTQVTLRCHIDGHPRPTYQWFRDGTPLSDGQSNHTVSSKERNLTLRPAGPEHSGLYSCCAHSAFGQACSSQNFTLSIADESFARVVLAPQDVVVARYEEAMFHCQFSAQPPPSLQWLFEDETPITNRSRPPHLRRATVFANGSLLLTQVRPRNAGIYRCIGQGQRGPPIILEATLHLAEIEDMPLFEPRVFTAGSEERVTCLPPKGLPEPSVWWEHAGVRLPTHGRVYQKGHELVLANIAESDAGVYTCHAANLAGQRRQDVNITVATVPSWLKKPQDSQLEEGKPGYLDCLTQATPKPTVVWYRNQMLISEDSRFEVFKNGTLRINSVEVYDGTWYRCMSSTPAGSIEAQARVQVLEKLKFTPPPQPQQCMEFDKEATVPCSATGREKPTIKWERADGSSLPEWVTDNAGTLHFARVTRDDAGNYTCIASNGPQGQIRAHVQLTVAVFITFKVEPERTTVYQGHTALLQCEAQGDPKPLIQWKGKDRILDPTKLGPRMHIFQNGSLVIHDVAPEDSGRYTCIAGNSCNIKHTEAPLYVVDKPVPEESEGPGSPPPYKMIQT
# B1: anti-PTK7 human monoclonal antibody 3G8 (antibody, V domains shown)
# VH: QVQLVESGGGVVQPGRSLRLSCAASGFIFSNYAMHWVRQAPGKGLEWVAVISYDGNNKYYADSVKGRFTISRDNSKNTLYLQMNSLRAEDTAVYYCAREVWSIDNWGQGTLVTVSS
# VL: DIQMTQSPSSLSASVGDRVTITCRASQGISSWLAWYQQKPEKAPKSLIYAASSLQSGVPSRFSGSGSGTDFTLTISSLQPEDFATYYCQQYNSYPRTFGQGTKVEIK
# B2: anti-PTK7 human monoclonal antibody 4D5 (antibody, V domains shown)
# VH: QVQLVESGGGVVQPGRSLRLSCAASGFTFSSYAFHWVRQAPGKGLEWVAVISYDGSIKYYADSVKGRFTISRDNSKNTLYLQMNSLRAEDTAVYYCARTYYFDYWGQGTLVTVSS
# VL: EIVLTQSPDFQSVTPKEKVTITCRASQSIGSSLHWYQQKPDQSPKLLIKYASQSFSGVPSRFSGSGSGTDFTLTINSLEAEDAAAYYCHQSSSLPITFGQGTRLEIK
# B3: anti-PTK7 human monoclonal antibody 12C6 (antibody, V domains shown)
# VH: EVQLVQSGGGLVHPGGSLRLSCAGSGFTFSTYLMYWVRQAPGKTLEWVSAIGSGGDTYYADSVKGRFTISRDNAKNSLYLQMNSLRAEDMAVYYCARGLGYWGQGTLVTVSS
# VL: not shown
# notes: Human IgG with kappa light chain, made by a hybridoma
# B4: anti-PTK7 human monoclonal antibody 7C8 (antibody, V domains shown)
# VH: QVQLVESGGGVVQPGRSLRLSCAASGFTFSSYGMHWVRQAPGKGLEWVAVIWDDGSNKYYVDSVKGRFTISRDNSKNTLYLQMNSLRAEDTAVYYCARDDYYGSGSFNSYYGTDVWGQGTTVTVSS
# VL: EIVLTQSPATLSLSPGERATLSCRASQSVSIYLAWYQQKPGQAPRLLIYDASNRATGIPARFSGSGSGTDFTLTISSLEPEDFAVYYCQQRSNWPPFTFGPGTKVDIK
# notes: Human IgG with kappa light chain, made by a hybridoma; also called 7CS
# B5: anti-PTK7 human monoclonal antibody 12C6a (antibody, V domains shown)
# VH: B3 VH
# VL: B1 VL with R96Y, V104L
# notes: Human IgG with kappa light chain, made by a hybridoma; Same VH as 12C6
# Assays:
# [1] = target: T1, human PTK7, full length, on the cell …; experiment: cell-based or functional assay
# [2] = target: T1, human PTK7, full length, on the cell …; experiment: flow cytometry on Wilms' tumor G-401 cells, antibody from 30 µg/ml in 1:10 dilutions
# Procedure: The nephroblastoma Wilms' tumor cell line G-401 (ATCC Acc No. CRL-1441) was tested for binding of the HuMAb anti-PTK7 human monoclonal antibodies 12C6 and 7C8 at different concentrations. Binding of the anti-PTK7 human monoclonal antibodies was assessed by incubating 1×10⁵ cells with antibody at a starting concentration of 30 μg/ml and serially diluting the antibody at a 1:10 dilution. The cells were washed and binding was detected with a PE-labeled anti-human IgG Ab. Flow cytometric analyses were performed using a FACScan flow cytometry (Becton Dickinson, San Jose, Calif.). The anti-PTK7 monoclonal antibodies 12C6 and 7C8 bound to the nephroblastoma Wilms' tumor cell line in a concentration dependent manner, as measured by the mean fluorescent intensity (MFI) of staining.
# [3] = target: T2, recombinant extracellular domain of PTK7; experiment: ELISA on recombinant PTK7 extracellular domain, HRP anti-human IgG (kappa) detection
# Procedure: (§1) Recombinant extracellular domain of PTK7 was tested for binding against the anti-PTK7 human monoclonal antibodies 3G8, 4D5, 12C6 and 12C6a at different concentrations. Standard ELISA procedures were performed. The anti-PTK7 human monoclonal antibodies were added at a starting concentration of 10 μg/ml and serially diluted at a 1:2 dilution. Goat-anti-human IgG (kappa chain-specific) polyclonal antibody conjugated with horseradish peroxidase (HRP) was used as secondary antibody. Each of the anti-PTK7 human monoclonal antibodies 3G8, 4D5, 12C6 and 12C6a bound to PTK7.
# [4] = target: T2, recombinant extracellular domain of PTK7; experiment: ELISA on recombinant extracellular domain of PTK7, antibody from 10 µg/ml in 1:2 dilutions
# Procedure: as §1
# [5] = target: T1, human PTK7, full length, on the cell …; experiment: flow cytometry on cancer cell lines that express cell surface PTK7, antibody at 10 µg/ml, MFI
# Procedure: Binding of the 3G8, 12C6a, 4D5 and 12C6 anti-PTK7 human monoclonal antibodies to a panel of cancer cell lines was assessed by incubating cancer cell lines with anti-PTK7 human monoclonal antibodies at a concentration of 10 μg/ml. […] An isotype control antibody was used as a negative control. The cells were washed and binding was detected with a FITC-labeled anti-human IgG Ab. Flow cytometric analyses were performed using a FACScan flow cytometry (Becton Dickinson, San Jose, Calif.).
Binder,"EC50, Hum-Zap internalization assay (3H-thymidine incorporation), Wilms' tumor cells [1] [nM]","EC50, Hum-Zap internalization assay (3H-thymidine incorporation), A-431 cells [1] [nM]","EC50, Hum-Zap internalization assay (3H-thymidine incorporation), PC3 tumor cells [1] [nM]",EC50 [2] [nM],EC50 (read off the curve) [3] [µg/mL],binding result [4],binding result [5]
B1,0.644,–,–,–,–,–,–
B2,0.252,–,–,–,–,–,–
B3,0.205,166,0.318,4.04,~0.6,–,–
B4,0.179,0.183,0.265,3.43,–,–,–
B5,–,–,–,–,–,binds,binds
